Measurements reported in patent US20220249369A1, “BIOLOGICAL BITS AS COMPUTABLE ELEMENTS WITHIN LIVING SYSTEMS” (GEORGIA TECH RESEARCH CORPORATION, priority 2018, published 2022).
Where no end group is shown, it is not given here. [ ]: non-standard residue; d: D form. The star is where a group is joined. 5FAM = O=C1OC2(c3ccc(O)cc3Oc3cc(O)ccc32)c2ccc(C(=O)*)cc21

Columns and labels:
plasmin = plasmin (Homo sapiens, UniProt P00747); assay: Protease cleavage assay, U-gate on two-state protease bit; format: biochemical; settings: n=3; for state probability (relative cleavage velocity) after first U-gate: plasmin exposed to state 0 and state 1 substrates
plasmin, sequence (P00747 581-810 limits assumed, species assumed): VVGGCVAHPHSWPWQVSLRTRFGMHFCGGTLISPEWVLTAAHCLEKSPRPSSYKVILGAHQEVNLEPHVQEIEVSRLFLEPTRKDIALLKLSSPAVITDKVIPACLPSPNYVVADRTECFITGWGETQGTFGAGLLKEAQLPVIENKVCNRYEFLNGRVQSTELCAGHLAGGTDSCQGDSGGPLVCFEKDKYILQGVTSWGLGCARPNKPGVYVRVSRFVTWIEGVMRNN
plasmin, sequence (P00747 97-580 partner limits assumed, species assumed): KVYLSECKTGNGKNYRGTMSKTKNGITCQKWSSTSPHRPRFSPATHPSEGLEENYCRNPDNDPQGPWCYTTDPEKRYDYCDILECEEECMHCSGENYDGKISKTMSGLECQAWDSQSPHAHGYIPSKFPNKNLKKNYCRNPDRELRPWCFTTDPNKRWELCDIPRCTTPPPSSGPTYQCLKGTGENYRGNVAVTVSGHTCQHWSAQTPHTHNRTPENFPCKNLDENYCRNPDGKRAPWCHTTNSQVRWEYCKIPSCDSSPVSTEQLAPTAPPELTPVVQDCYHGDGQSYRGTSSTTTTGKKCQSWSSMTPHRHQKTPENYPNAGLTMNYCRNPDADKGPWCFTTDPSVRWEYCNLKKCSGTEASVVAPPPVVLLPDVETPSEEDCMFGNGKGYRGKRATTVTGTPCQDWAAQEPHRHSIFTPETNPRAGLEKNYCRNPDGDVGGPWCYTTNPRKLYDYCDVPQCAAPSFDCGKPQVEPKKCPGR
Experimental: Protease cleavage assays: All protease cleavage assays were performed with a BioTek Cytation 5 Imaging Plate Reader, taking fluorescent measurements at 485/528 nm and 540/575 nm (excitation/emission) for read-outs measuring peptide substrates terminated with FITC (Fluorescein isothiocyanate) and 5-TAMRA (5-Carboxytetramethylrhodamine), respectively. Kinetic measurements were taken every minute over the course of 60-120 minutes at 37° C. West Nile Virus NS3 protease (WNVp) and Tobacco Etch Virus protease (TEVp), along with their substrates, inhibitors and buffers were obtained from Anaspec, Inc. (Fremont, Calif.). Phospholipase C (PLC), Phosphatidylinositol-Specific (from Bacillus cereus) was purchased from Thermo Fisher Scientific (Waltham, Mass.). Activity RFU measurements were normalized to time 0 measurement, and as such represent fold change in signal. Granzyme B (GzmB) was purchased from PeproTech, Inc. (Rocky Hill, N.J.). Thrombin and Factor XIa were purchased from Haematologic Technologies (Essex, Vt.). Outer Membrane Protease T (OmpT, Protease 7) was purchased from Lifespan Biosciences (Seattle, Wash.). C1r was purchased from Millipore Sigma (Burlington, Mass.). GzmB, Thrombin, Factor XIa, and C1r fluorescent peptide substrates were custom ordered from CPC Scientific (Sunnyvale, Calif.). OmpT fluorescent peptide substrate was custom ordered from Genscript (Piscataway, N.J.). See Table 1 and Table 2 for more information regarding proteases, substrates, and inhibitors.
For FIGS. 5G-5I and 5N-5Q: 2 uL of thrombin (10.1 mg/mL) or plasmin (6.9 mg/mL) were added to 18 uL of respective state 1 or state 0 substrate (2 uM). Velocities of Thrombin and Plasmin cutting their respective state 1 or state 0 substrates were calculated over the first 5 minutes of incubation. These velocities were normalized by the sum of the state 1 and state 0 velocity. Therefore, the values plotted as probability in FIG. 4 are relative velocities. […]

DH5α Escherichia coli = format: cell-based; settings: 37° C., 1 hour
Description: FIGS. 8A-8B show the results of unlocking peptide caged liposomes with increasing peptide crosslinking densities (levels 0-8). Eight levels of increasing peptide cage crosslinking were used to determine the number of bacteria required to unlock each level. FIG. 8C is a graph showing bacterial cytotoxicity measurement of drug-loaded liposomes. Conditions are moving from left to right: Bacteria only control, bacteria plus free drug, bacteria plus drug-loaded liposome without lipase, and bacteria plus drug-loaded liposome with lipase. Samples were incubated with bacteria at 37° C. for eight hours and plated. CFU were quantified to estimate bacteria viability. Error bars are plotted as standard deviation (n=3). RFU stands for “Relative Fluorescence Unit” and is plotted as fold change (FC) from initial fluorescence at time=0. Bacterial Culture and Cytotoxicity Assay: DH5α Escherichia coli were cultured in LB broth (Lennox) at 37° C. and plated on LB agar (Lennox) plates. LB broth was purchased from Millipore Sigma (Burlington, Mass.) and LB agar was purchased from Invitrogen (Carlsbad, Calif.). AMP and locked AMP were custom ordered from Genscript (Piscataway, N.J.). […] Bacterial cell viability was measured by making eight 10-fold serial dilutions, and plating three 10 μL spots on an LB agar plate. Plates were incubated overnight at 37° C., and CFUs were counted. […]

Substance | state probability (relative cleavage velocity) after first U-gate (plasmin) [%] | state 0 probability (relative cleavage velocity) after second U-gate (plasmin; state 0 substrate added in large molar excess) [%] | cytolytic activity against bacteria compared to untreated controls (DH5α Escherichia coli; locked drug without protease) | reduction in bacterial colonies (DH5α Escherichia coli; protease-cleaved (TEVp))
5FAM-GLQRALEI-K(CPQ2)-k-C (5FAM-GLQRALEIK(CPQ2)[dK]C) [CC9, quenched fluorescent plasmin substrate (state 0)] | 45 | 93 |  | 
5FAM-KYLGRSYKV-K(CPQ2)-C (5FAM-KYLGRSYKVK(CPQ2)C) [CC6, quenched fluorescent protease substrate (state 1)] | 55 |  |  | 
EEEEEEEEENLYFQGRRRRRRRRR [Locked AMP p1, polyarginine AMP locked by polyglutamic acid via TEV-cleavable linker] |  |  | no significant cytolytic activity | significant reduction in bacterial colonies
